Experimental data from paper PMC7423155, “RCC1L (WBSCR16) isoforms coordinate mitochondrial ribosome assembly through their interaction with GTPases” (PLoS Genetics, 2020).

Target: T1, STREP2-FLAG-tagged RCC1L^V1 (human, UniProt Q96I51 38-464)
T1 construct: RCC1L (WBSCR16), human, isoform RCC1L^V1, the principal isoform, 464 amino acids as precursor; isoform cDNA expressed in cells and recovered from purified mitochondria; pcDNA5/FRT/TO; carboxy-terminal STREP2 followed by FLAG; also called RCC1L^V1-FLAG; WBSCR16 isoform V1; source: inducible transgenic HEK cell line (doxycycline), in lysate of purified mitochondria; not shown: STREP2, C-terminal, …
Test: co-IP; STREP2-FLAG-tagged RCC1L isoform as bait, captured on Strep-Tactin Sepharose overnight from trypsin-treated, sucrose gradient-purified HEK mitochondria lysed with 0.8% DDM; 10 washes; elution with 10 mM desthiobiotin; endogenous proteins in the elution found by immunoblot
Conditions: partners not purified

T1 sequence (Q96I51 38-464): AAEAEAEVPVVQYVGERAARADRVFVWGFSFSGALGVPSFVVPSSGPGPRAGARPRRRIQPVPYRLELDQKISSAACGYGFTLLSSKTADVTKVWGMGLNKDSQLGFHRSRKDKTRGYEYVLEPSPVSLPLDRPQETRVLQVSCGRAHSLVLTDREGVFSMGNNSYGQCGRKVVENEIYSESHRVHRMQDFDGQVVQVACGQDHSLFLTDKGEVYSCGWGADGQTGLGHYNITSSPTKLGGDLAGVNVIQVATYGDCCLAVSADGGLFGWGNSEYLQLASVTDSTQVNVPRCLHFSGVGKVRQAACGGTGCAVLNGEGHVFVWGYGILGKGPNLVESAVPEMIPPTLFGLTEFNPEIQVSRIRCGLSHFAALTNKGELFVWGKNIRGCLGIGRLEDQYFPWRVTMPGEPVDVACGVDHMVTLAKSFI

B1: GTPBP10 (enzyme, human (endogenous in HEK293T), UniProt A4D1E9 1-387, looked up)
chain: MVHCSCVLFRKYGNFIDKLRLFTRGGSGGMGYPRLGGEGGKGGDVWVVAQNRMTLKQLKDRYPRKRFVAGVGANSKISALKGSKGKDCEIPVPVGISVTDENGKIIGELNKENDRILVAQGGLGGKLLTNFLPLKGQKRIIHLDLKLIADVGLVGFPNAGKSSLLSCVSHAKPAIADYAFTTLKPELGKIMYSDFKQISVADLPGLIEGAHMNKGMGHKFLKHIERTRQLLFVVDISGFQLSSHTQYRTAFETIILLTKELELYKEELQTKPALLAVNKMDLPDAQDKFHELMSQLQNPKDFLHLFEKNMIPERTVEFQHIIPISAVTGEGIEELKNCIRKSLDEQANQENDALHKKQLLNLWISDTMSSTEPPSKHAVTTSKMDII
notes: GTPBP10, mitochondrial GTPase of mtLSU assembly, human; endogenous mitochondrial protein; source: endogenous, lysate of purified HEK mitochondria
  fold enrichment in the pull-down over MTG1: 5 fold
  fold enrichment in the pull-down over MTG2: 4 fold
